Laboratory results as given in patent publication US20040214275.

B1: vWF-cleaving protease derived from human plasma (protein)
chain: AAGGILHLELLVAVGPDVFQAHQEDTERYVLTNLNIGAELLRDPSLGAQFRVHLVKMVILTEPEGAPNITANLTSSLLSVCGWSQTINPEDDTDPGHADLVLYITRFDLELPDGNRQVRGVTQLGGACSPTWSCLITEDTGFDLGVTIAHEIGHSFGLEHDGAPGSGCGPSGHVMASDGAAPRAGLAWSPCSRRQLLSLLSAGRARCVWDPPRPQPGSAGHPPDAQPGLYYSANEQCRVAFGPKAVACTFAREHLDMCQALSCHTDPLDQSSCSRLLVPLLDGTECGVEKWCSKGRCRSLVELTPIAAVHGRWSSWGPRSPCSRSCGGGVVTRRRQCNNPRPAFGGRACVGADLQAEMCNTQACEKTQLEFMSQQCARTDGQPLRSSPGGASFYHWGAAVPHSQGDALCRHMCRAIGESFIMKRGDSFLDGTRCMPSGPREDGTLSLCVSGSCRTFGCDGRMDSQQVWDRCQVCGGDNSTCSPRKGSFTAGRAREYVTFLTVTPNLTSVYIANHRPLFTHLAVRIGGRYVVAGKMSISPNTTYPSLLEDGRVEYRVALTEDRLPRLEEIRIWGPLQEDADIQVYRRYGEEYGNLTRPDITFTYFQPKPRQAWVWAAVRGPCSVSCGAGLRWVNYSCLDQARKELVETVQCQGSQQPPAWPEACVLEPCPPYWAVGDFGPCSASCGGGLRERPVRCVEAQGSLLKTLPPARCRAGAQQPAVALETCNPQPCPARWEVSEPSSCTSAGGAGLALENETCVPGADGLEAPVTEGPGSVDEKLPAPEPCVGMSCPPGWGHLDATSAGEKAPSPWGSIRTGAQAAHVWTPAAGSCSVSCGRGLMELRFLCMDSALRVPVQEELCGLASKPGSRREVCQAVPCPARWQYKLAACSVSCGRGVVRRILYCARAHGEDDGEEILLDTQCQGLPRPEPQEACSLEPCPPRWKVMSLGPCSASCGLGTARRSVACVQLDQGQDVEVDEAACAALVRPEASVPCLIADCTYRWHVGTWMECSVSCGDGIQRRRDTCLGPQAQAPVPADFCQHLPKPVTVRGCWAGPCVGQGTPSLVPHEEAAAPGRTTATPAGASLEWSQARGLLFSPAPQPRRLLPGPQENSVQSSACGRQHLEPTGTIDMRGPGQADCAVAIGRPLGEVVTLRVLESSLNCSAGDMLLLWGRLTWRKMCRKLLDMTFSSKTNTLVVRQRCGRPGGGVLLRYGSQLAPETFYRECDMQLFGPWGEIVSPSLSPATSNAGGCRLFINVAPHARIAIHALATNMGAGTEGANASYILIRDTHSLRTTAFHGQQVLYWESESSQAEMEFSEGFLKAQASLRGQYWTLQSWVPEMQDPQSWKGKEGT

Tests used:
[1] = target: von Willebrand factor purified from human plasma cryoprecipitate (UniProt P04275)
[2] = target: von Willebrand factor purified from human plasma cryoprecipitate, P04275

Row | Molecule | vWF-cleaving activity (qualitative) [1] | vWF-cleaving activity [2]
1 | W897stop variant of the vWF-cleaving protease (lacking the region between the C-terminus and position W897) | a variant lacking a region between the C-terminus and the position W897 was found to have activity, although it was the result of qualitative analysis | 
2 | B1 |  | activity derived from the cryoprecipitate and the FI paste were found to cleave the peptide bond between residues Tyr 842 and Met 843
